Target: T1, E. faecalis RNase J2 (Enterococcus faecalis (strain OG1RF), UniProt Q836D0 1-562)
T1 construct: RNase J2 of Enterococcus faecalis, product of rnjB (ef1185); 1689 bp fragment PCR amplified from the OG1RF genome with primers 1185NdeF (begins at the ATG) and 1185XhoR (ends at the stop codon), in vector pQE30; recombinant protein M.W. 64.2 kDa; Vector pQE30; also called wild-type RNase J2; rnjB gene product; source: E. coli BL21, purified (Ni-NTA agarose)
T1 sequence (looked up): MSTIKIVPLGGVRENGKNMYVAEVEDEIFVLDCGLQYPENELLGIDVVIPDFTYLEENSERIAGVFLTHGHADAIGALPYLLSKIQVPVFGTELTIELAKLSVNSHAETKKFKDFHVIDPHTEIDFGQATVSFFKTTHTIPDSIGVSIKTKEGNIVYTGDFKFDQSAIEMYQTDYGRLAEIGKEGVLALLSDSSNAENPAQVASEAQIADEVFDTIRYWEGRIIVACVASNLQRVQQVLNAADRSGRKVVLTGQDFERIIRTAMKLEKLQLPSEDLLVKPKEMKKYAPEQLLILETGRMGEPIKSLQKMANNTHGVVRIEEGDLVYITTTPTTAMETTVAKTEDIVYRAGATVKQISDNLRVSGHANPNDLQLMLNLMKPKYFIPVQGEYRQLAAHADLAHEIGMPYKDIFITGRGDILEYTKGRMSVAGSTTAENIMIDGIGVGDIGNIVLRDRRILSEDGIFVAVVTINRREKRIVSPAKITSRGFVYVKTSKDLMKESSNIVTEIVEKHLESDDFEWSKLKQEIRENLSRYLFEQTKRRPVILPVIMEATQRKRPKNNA
Experiment: SPR; Biacore T100; E. faecalis RNase J1 immobilized on a CM5 sensor surface; J2 proteins 400 to 50 nM in duplicate; fitted to the 1:1 binding model
Details: both partners purified

B1: E. faecalis RNase J1 (enzyme)
chain: not shown
notes: recombinant protein M.W. 62.6 kDa; also called rnjA gene product; ef2924; source: E. coli BL21, purified (Ni-NTA agarose)
B1 was tested. Which Kd did it give?
Its Kd is 74 nM.

From paper PMC5383250, “Functional studies of E. faecalis RNase J2 and its role in virulence and fitness” (PLoS ONE, 2017)
